Data on four molecules can be found in article PMC2173386 (The Journal of Cell Biology, 2002).

The target in test [1] is T1, p97 (valosin-containing protein) (rat, UniProt P46462 1-806). The test can be described thus: co-IP.
Test [2] addresses T2, His-p47(171–270) (UniProt O35987 171-270).
T2 sequence (looked up): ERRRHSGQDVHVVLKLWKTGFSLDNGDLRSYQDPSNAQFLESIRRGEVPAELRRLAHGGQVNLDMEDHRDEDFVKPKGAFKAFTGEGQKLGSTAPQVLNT
The test is described as follows: pull-down.

For test [3], the target named is T1, p97 (valosin-containing protein). The test can be described thus: pull-down.

B1: His-tagged VCIP135(744–1221) (domain or fragment, rat, UniProt Q8CF97 744-1221, looked up)
chain: TVSPSTIRDGPSSAPATPTKAPYSPTTSKEKKIRITTNDGRQSMVTLKSSTTFFELQESIAREFNIPPYLQCIRYGFPPKELMPPQAGMEKEPVPLQHGDRITIEILKGKAEGGPSTAAHSAHTVRQEEIAVTGKLSSKELQEQADKEMYSLCLLATLMGEDVWSYAKGLPHMFQQGGVFYNIMKKTMGMADGKHCTFPHLPGKTFVYNASEDRLELCVDAAGHFPIGPDVEDLVKEAVSQVRAEATTRSRESSPSHGLLKLGSGGVVKKKSEQLHNVTAFQGKGHSLGTASSNPHMDPRARETLAVRKHNTGTDFSNSSIKTEPPVFTAASSNSELIRIAPGVVTMRDGRQIDPDVVEAQRKKLQEMVSSIQASMDKHLRDQSTEQTPSDLSQRKVEAVSSSVRPGNLQTGLPESFSLTGGTENLNTETTDSRVADVLGAAFATRSKAQKENSMEEPEEMDSQDAETTNTTEPMDHS
For the molecule B1, the binding result in test [1] was “binds”.

B2: GST-tagged p97(1–74) (domain or fragment, rat, UniProt P46462 1-74, looked up)
chain: MASGADSKGDDLSTAILKQKNRPNRLIVDEAINEDNSVVSLSQPKMDELQLFRGDTVLLKGKKRREAVCIVLSD
B2: in test [2], the binding result is listed as “binds”.

B3: GST-tagged p47(171–270) (domain or fragment, UniProt O35987 171-270, looked up)
chain: T2 sequence (looked up)
As for B3, in test [3], the binding result is given as “binds”.

B4: GST-tagged p47(271–370) (domain or fragment, UniProt O35987 271-370, looked up)
chain: SSPAQQAENEAKASSSILINEAEPTTNIQIRLADGGRLVQKFNHSHRISDIRLFIVDARPAMAATSFVLMTTFPNKELADENQTLKEANLLNAVIVQRLT
Take B4: the binding result in test [3] is recorded as “binds”.
